# According to US20260266848A1, “COMPOSITIONS AND METHODS FOR DIAGNOSING AND TREATING DYSTONIA” (Duke University, priority 2023, published 2026):
# B1: Upf1 (protein, UniProt Q9EPU0 1-1124, looked up)
# Regulator of nonsense …: MSVEAYGPSSQTLTFLDTEEAELLGADTQGSEFEFTDFTLPSQTQTPPGGPGGAGGPGGAGAGGAAGQLDAQVGPEGILQNGAVDDSVAKTSQLLAELNFEEDEEDTYYTKDLPVHACSYCGIHDPACVVYCNTSKKWFCNGRGNTSGSHIVNHLVRAKCKEVTLHKDGPLGETVLECYNCGCRNVFLLGFIPAKADSVVVLLCRQPCASQSSLKDINWDSSQWQPLIQDRCFLSWLVKIPSEQEQLRARQITAQQINKLEELWKENPSATLEDLEKPGVDEEPQHVLLRYEDAYQYQNIFGPLVKLEADYDKKLKESQTQDNITVRWDLGLNKKRIAFFTLPKTDSGNEDLVIIWLRDMRLMQGDEICLRYKGDLAPLWKGIGHVIKVPDNYGDEIAIELRSSVGAPVEVTHNFQVDFVWKSTSFDRMQSALKTFAVDETSVSGYIYHKLLGHEVEDVVIKCQLPKRFTAQGLPDLNHSQVYAVKTVLQRPLSLIQGPPGTGKTVTSATIVYHLARQGNGPVLVCAPSNIAVDQLTEKIHQTGLKVVRLCAKSREAIDSPVSFLALHNQIRNMDSMPELQKLQQLKDETGELSSADEKRYRALKRTAERELLMNADVICCTCVGAGDPRLAKMQFRSILIDESTQATEPECMVPVVLGAKQLILVGDHCQLGPVVMCKKAAKAGLSQSLFERLVVLGIRPIRLQVQYRMHPALSAFPSNIFYEGSLQNGVTAADRVKKGFDFQWPQPDKPMFFYVTQGQEEIASSGTSYLNRTEAANVEKITTKLLKAGAKPDQIGIITPYEGQRSYLVQYMQFSGSLHTKLYQEVEIASVDAFQGREKDFIILSCVRANEHQGIGFLNDPRRLNVALTRARYGVIIVGNPKALSKQPLWNHLLSYYKEQKALVEGPLNNLRESLMQFSKPRKLVNTVNPGARFMTTAMYDAREAIIPGSVYDRSSQGRPSNMYFQTHDQISMISAGPSHVAAMNIPIPFNLVMPPMPPPGYFGQANGPAAGRGTPKTKTGRGGRQKNRFGLPGPSQTTLPNSQASQDVASQPFSQGALTQGYVSMSQPSQMSQPGLSQPELSQDSYLGDEFKSQIDVALSQDSTYQGERAYQHGGVTGLSQY
# B2: Mri1 (protein, UniProt Q9CQT1 1-369, looked up)
# Methylthioribose-1-phosphate …: MTLEAIRYSPGSLQILDQLQLPEHCHYEALSSVQQASEAIRAMKVRGAPAIALVGCLSLAVELRAGAGGPGLAALVAFVRDQLRLLVAARPTAVNMARAARDLGQVAAQEAEREGATEETVRERVIRFAEDMLEKDLKDNRSIGDLGARHLLEQTNPRGGKVTVLTHCNTGALATAGYGTALGVIRSLHEMGRLEHTFCTETRPYNQGARLTAFELVYEQIPATLITDSMAAAAMAHRGVSAVVVGADRVVANGDTANKIGTYQLAIVAKHHGVPFYVAAPSSSCDLHLETGKEIVIEERPSQELTDLNGVRIAAQGIRVWNPAFDVTPHELITGGIITELGVFAPEELRGALSASVFSEGQTLDSPWV
# B3: Sec31a (protein, UniProt Q3UPL0 1-1230, looked up)
# Protein transport protein …: MKLKEIDRTAMQAWSPAQNHPIYLATGTSAQQLDATFSTNASLEIFELDLSDPSLDMKSCATFSSSHRYHKLIWGPHKMDSKGDVSGVLIAGGENGNIILYDPSKIIAGDKEVVIAQKDKHTGPVRALDVNIFQTNLVASGANESEIYIWDLNNFATPMTPGAKTQPPEDISCIAWNRQVQHILASASPSGRATVWDLRKNEPIIKVSDHSNRMHCSGLAWHPDVATQMVLASEDDRLPVIQMWDLRFASSPLRVLENHARGILAVAWSMADPELLLSCGKDAKILCSNPNTGEVLYELPTNTQWCFDIQWCPRNPAVLSAASFDGRISVYSIMGGSIDGLRQKQVDKLSSSFGNLDPFGTGQPLPPLQIPQQSAQHSIVLPLKKPPKWIRRPVGASFSFGGKLVTFESVAVPLQQGAEQQRRQPVFISQVVTEKDFLNRSAQLQHAVQSQGFIGYCQKKIEASQTEFEKNVWSFLKVNFEEDSRGKYLELLGYRKEDLGQKIALALNKVDGPDVALKDSDQVAQSDGEESPAAEEQLLGERIKEEKQECDFLPSAGGTFNISVSGDIDGLITRALLTGNFESAVDLCLHDNRMADAIILAIAGGQELLAQTQKKYFAKSQSKITRLITAVVMKNWREIVESCDLKNWREALAAVLTYAKPDEFSALCDLLGTRLEREGDSLLRTQACLCYICAGNVERLVACWTKAQDGSSPLSLQDLIEKVVILRKAVQLTQALDTNTVGALLAEKMSQYASLLAAQGSIAAALAFLPDNTNQPNIVQLRDRLCKAQGKPVSGQESSQSPYERQPLSKGRPGPVAGHSQMPRVQTQQYYPHGENPPPPGFIMQGNVIPNPAAPLPTAPGHMPSQLPPYPQPQPYQPAQQYSFGTGGAAAYRPQQPVAPPASNAYPNTPYISPVASYSGQPQMYTAQQASSPTSSSAASFPPPSSGASFQHGGPGAPPSSSAYALPPGTTGTPPAASELPASQRTENQSFQDQASILEGPQNGWNDPPALNRVPKKKKMPENFMPPVPITSPIMNPSGDPQSQGLQQQPSTPGPLSSHASFPQQHLAGGQPFHGVQQPLAQTGMPPSFSKPNTEGAPGAPIGNTIQHVQALPTEKITKKPIPEEHLILKTTFEDLIQRCLSSATDPQTKRKLDDASKRLEFLYDKLREQTLSPTIINGLHSIARSIETRNYSEGLSVHTHIVSTSNFSETSAFMPVLKVVLSQASKLGV
# B4: Atp6v1h (protein, UniProt Q8BVE3 1-483, looked up)
# V-type proton ATPase subunit H: MTKMDIRGAVDAAVPTNIIAAKAAEVRANKVNWQSYLQGQMISAEDCEFIQRFEMKRSSEDKQEMLQTEGSQCAKTFINLMTHISKEQTVQYILTMVDDMLQENHQRVSIFFDYAKRSKSTAWPYFLPMLNRQDPFTVHMAARIIAKLAAWGKELMEGSDLNYYFNWIKTQLSSQKLRGSGVAVETGTISSSDSSQYVQCVAGCLQLMLRVNEYRFAWVEADGVNCIMGVLSNKCGFQLQYQMIFSIWLLAFSPQMCEHLRRYNIIPVLSDILQESVKEKVTRIILAAFRNFLEKSTERETRQEYALAMIQCKVLKQLENLEQQKYDDEDISEDIKFLLEKLGESVQDLSSFDEYSSELKSGRLEWSPVHKSEKFWRENAVRLNEKNYELLKILTKLLEVSDDPQVLAVAAHDVGEYVRHYPRGKRVIEQLGGKQLVMNHMHHEDQQVRYNALLAVQKLMVHNWEYLGKQLQSEQPQTAAARS
# B5: Itgb5 (protein, UniProt O70309 24-798, looked up)
# Integrin beta-5: GLNICTSGSATSCEECLLIHPKCAWCSKEYFGNPRSITSRCDLKANLIRNGCEGEIESPASSTHVLRNLPLSSKGSSATGSDVIQMTPQEIAVSLRPGEQTTFQLQVRQVEDYPVDLYYLMDLSLSMKDDLENIRSLGTKLAEEMRKLTSNFRLGFGSFVDKDISPFSYTAPRYQTNPCIGYKLFPNCVPSFGFRHLLPLTDRVDSFNEEVRKQRVSRNRDAPEGGFDAVLQAAVCKEKIGWRKDALHLLVFTTDDVPHIALDGKLGGLVQPHDGQCHLNEANEYTASNQMDYPSLALLGEKLAENNINLIFAVTKNHYMLYKNFTALIPGTTVEILHGDSKNIIQLIINAYSSIRAKVELSVWDQPEDLNLFFTATCQDGISYPGQRKCEGLKIGDTASFEVSVEARSCPGRQAAQSFTLRPVGFRDSLQVEVAYNCTCGCSTGLEPNSARCSGNGTYTCGLCECDPGYLGTRCECQEGENQSGYQNLCREAEGKPLCSGRGECSCNQCSCFESEFGRIYGPFCECDSFSCARNKGVLCSGHGECHCGECKCHAGYIGDNCNCSTDVSTCKAKDGQICSDRGRCVCGQCQCTEPGAFGETCEKCPTCPDACSSKRDCVECLLLHQGKPDNQTCHHQCKDEVITWVDTIVKDDQEAVLCFYKTAKDCVMMFSYTELPNGRSNLTVLREPECGSAPNAMTILLAVVGSILLIGMALLAIWKLLVTIHDRREFAKFQSERSRARYEMASNPLYRKPISTHTVDFAFNKFNKSYNGSV
# B6: Eif4g2 (protein, UniProt Q62448 1-906, looked up)
# Eukaryotic translation …: MESAIAEGGASRFSASSGGGGSRGAPQHYPKTAGNSEFLGKTPGQNAQKWIPARSTRRDDNSAANNSANEKERHDAIFRKVRGILNKLTPEKFDKLCLELLNVGVESKLILKGVILLIVDKALEEPKYSSLYAQLCLRLAEDAPNFDGPAAEGQPGQKQSTTFRRLLISKLQDEFENRTRNVDVYDKRENPLLPEEEEQRAIAKIKMLGNIKFIGELGKLDLIHESILHKCIKTLLEKKKRVQLKDMGEDLECLCQIMRTVGPRLDHERAKSLMDQYFARMCSLMLSKELPARIRFLLQDTVELREHHWVPRKAFLDNGPKTINQIRQDAVKDLGVFIPAPMAQGRSDFFLEGPFMPPRMKMDRDPLGGLADMFGQMPGSGIGTGPGVIQDRFSPTMGRHRSNQLFNGHGGHIMPPTQSQFGEMGGKFMKSQGLSQLYHNQSQGLLSQLQGQSKDMPPRFSKKGQLNADEISLRPAQSFLMNKNQVPKLQPQITMIPPSAQPPRTQTPPLGQTPQLGLKTNPPLIQEKPAKTSKKPPPSKEELLKLTEAVVTDYLNSGNANDAVSGVREMRAPKHFLPEMLSKVIILSLDRSDEDKEKASSLISLLKQEGIATSDNFMQAFLNVLEQCPKLEVDIPLVKSYLAQFAARAIISELVSISELAQPLESGTHFPLFLLCLQQLAKLQDREWLTELFQQSKVNMQKMLPEIDQNKDRMLEILEGKGLSFLFPLLKLEKELLKQIKLDPSPQTIYKWIKDNISPKLHVDKGFVNILMTSFLQYISSEVSPPSDETDSSSAPSKEQLEQEKQLLLSFKPVMQKFLHDHVDLQVSALYALQVHCYNSSFPKGMLLRFFVHFYDMEIIEEEAFLAWKEDITQEFPGKGKALFQVNQWLTWLETAEEEESEEEAD
# System: WT MEF EVs
# Experiment: Quantitative LC-MS/MS proteomics of EVs from ISRIB-treated WT MEF cultures
# Type: cell-based, mouse
# Parameters: key to ISRIB and DYT Parallel Direction / ISRIB and DYT Parallel Direction, Ctdsp1 / ISRIB and DYT Parallel Direction, Pcdh19 / ISRIB and DYT Parallel Direction, Tspan7 / ISRIB and DYT Parallel Direction, Myo1e / ISRIB and DYT Parallel Direction, Plpp3 / ISRIB and DYT Parallel Direction, Sh3bp4 / ISRIB and DYT Parallel Direction, Dnajc7 / ISRIB and DYT Parallel Direction, Drg1 / ISRIB and DYT Parallel Direction, Maea: YES = protein abundance effect similar to DYT/WT
# Conditions: EV protein abundance, ISRIB-treated WT vs WT
row,Molecule,WT + ISRIB/WT Cohen's d
1,B1,−1.84
2,B2,−0.01
3,B3,−1.34
4,B4,−0.66
5,B5,1.22
6,B6,−3.04

# Same assay, conditions: EV protein abundance, WT + ISRIB vs WT, direction compared with DYT/WT
row,Molecule,ISRIB and DYT Parallel Direction
1,B1,YES
2,B2,YES
3,B3,YES
4,B4,YES
5,B5,YES
6,B6,YES

# System: DYT-TOR1A MEF EVs
# Experiment: Quantitative LC-MS/MS proteomics of EVs from drug-treated DYT-TOR1A MEF cultures (ritonavir, salubrinal)
# Type: cell-based, mouse
# Parameters: key to RTV Corrective Direction / RTV Corrective Direction, Grwd1 / RTV Corrective Direction, Srrm2 / RTV Corrective Direction, Rbm17 / RTV Corrective Direction, Dcaf8 / RTV Corrective Direction, Edil3 / RTV Corrective Direction, Timp3 / RTV Corrective Direction, Heatr3 / RTV Corrective Direction, Brd4 / RTV Corrective Direction, P3h4 / RTV Corrective Direction, Pacsin3 / RTV Corrective Direction, Naa50 / RTV Corrective Direction, Lpar6 / RTV Corrective Direction, Ndrg1 / RTV Corrective Direction, Kntc1 / RTV Corrective Direction, Cdk11b / RTV Corrective Direction, Sumo1 / RTV Corrective Direction, Lsm4 / RTV Corrective Direction, Hmga2 / RTV Corrective Direction, Cstf1 / RTV Corrective Direction, Tes / RTV Corrective Direction, Sbno1 / RTV Corrective Direction, Unc119b / RTV Corrective Direction, Cfdp1 / RTV Corrective Direction, Sec61b: YES = protein abundance effect opposite to DYT/WT
# Conditions: EV protein abundance, DYT + RTV (ritonavir) vs DYT, direction compared with DYT/WT
row,Molecule,RTV Corrective Direction
1,B1,YES
2,B2,YES
3,B3,YES
4,B4,YES
5,B5,YES
6,B6,YES

# Same assay, conditions: EV protein abundance, ritonavir (RTV)-treated DYT vs DYT
row,Molecule,DYT + RTV/DYT Cohen's d
1,B1,4.24
2,B2,5.85
3,B3,5.50
4,B4,4.82
5,B5,−4.69
6,B6,2.79
